# In patent US20220162323A1 (Regeneron, published 2022):
# T1: hFGFR2b.mmh (human)
# T1 construct: also called Human FGFR2b with C-terminal myc-myc-hexahistidine tag
# T1 chain: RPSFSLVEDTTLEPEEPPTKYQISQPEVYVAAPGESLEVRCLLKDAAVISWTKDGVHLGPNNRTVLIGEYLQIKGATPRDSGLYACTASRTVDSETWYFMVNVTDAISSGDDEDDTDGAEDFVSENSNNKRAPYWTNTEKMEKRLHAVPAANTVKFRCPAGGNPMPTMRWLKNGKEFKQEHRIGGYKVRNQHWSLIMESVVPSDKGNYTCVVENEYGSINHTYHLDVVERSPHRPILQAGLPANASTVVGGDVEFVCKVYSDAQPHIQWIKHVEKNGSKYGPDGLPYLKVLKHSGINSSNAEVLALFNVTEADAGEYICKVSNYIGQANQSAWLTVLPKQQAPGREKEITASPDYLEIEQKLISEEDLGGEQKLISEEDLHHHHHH
# T2: FGFR2b on SNU-16 and MFM-223 cells (human, UniProt P21802 22-821)
# T2 chain: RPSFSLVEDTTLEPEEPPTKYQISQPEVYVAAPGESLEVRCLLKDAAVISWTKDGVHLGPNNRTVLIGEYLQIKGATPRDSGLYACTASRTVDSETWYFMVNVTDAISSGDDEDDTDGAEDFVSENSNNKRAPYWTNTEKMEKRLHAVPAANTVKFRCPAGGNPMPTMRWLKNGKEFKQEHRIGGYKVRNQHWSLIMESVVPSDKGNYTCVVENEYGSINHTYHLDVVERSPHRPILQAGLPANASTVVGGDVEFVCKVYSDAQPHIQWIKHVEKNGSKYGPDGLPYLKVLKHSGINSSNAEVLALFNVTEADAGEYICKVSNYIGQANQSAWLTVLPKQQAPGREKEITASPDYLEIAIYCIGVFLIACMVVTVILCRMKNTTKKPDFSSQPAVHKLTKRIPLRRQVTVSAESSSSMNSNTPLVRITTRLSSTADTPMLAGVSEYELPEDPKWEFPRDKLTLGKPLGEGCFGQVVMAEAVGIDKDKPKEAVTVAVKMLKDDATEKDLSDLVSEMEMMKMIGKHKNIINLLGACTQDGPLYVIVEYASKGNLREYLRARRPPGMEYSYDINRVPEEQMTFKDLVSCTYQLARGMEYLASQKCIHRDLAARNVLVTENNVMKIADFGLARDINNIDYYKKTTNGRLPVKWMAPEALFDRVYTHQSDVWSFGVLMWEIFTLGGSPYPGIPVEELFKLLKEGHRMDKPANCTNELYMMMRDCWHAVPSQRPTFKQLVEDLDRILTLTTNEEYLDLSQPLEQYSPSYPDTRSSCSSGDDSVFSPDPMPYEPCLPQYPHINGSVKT
# Columns and labels:
# [1] = target: T3, hFGFR2c.mmh (human, UniProt P21802 22-377); assay: SPR (Biacore), antibody captured by anti-human Fc, hFGFR2c-MMH as analyte, 25 C
# T3 construct: also called Human FGFR2c with C-terminal myc-myc-hexahistidine tag
# Description: The equilibrium dissociation constants (KD values) for hFGFR2b.mmh binding to anti-FGFR2 antibodies conjugated with Tubulysin (“tubulysin 1ALP”), Auristatin (“auristatin LP1”), or mc-VC-PAB-NMe-C3-May (“maytansinoid 1ALP”) were determined using a real-time surface plasmon resonance biosensor assay on a Biacore 2000 or a Biacore 4000 instrument. The Biacore sensor surface was derivatized by amine coupling with a monoclonal mouse anti-human Fc antibody (REGN2567 or Jackson Cat. No #109-005-098) to capture anti-FGFR2 ADC and parent unmodified antibodies expressed with human constant regions. Biacore binding studies were performed in HBS-EP running buffer (0.01M HEPES pH 7.4, 0.15M NaCl, 3 mM EDTA, 0.05% v/v Surfactant P20). […] Association of hFGFR2b-MMH or hFGFR2c-MMH to each of the captured ADCs and monoclonal antibodies was monitored for 4 minutes. Subsequently, dissociation was monitored for 10 minutes in HBS-EP running buffer. […] Kinetic association (kₐ) and dissociation (kd) rate constants were determined by fitting the real-time sensorgrams to a 1:1 binding model using Scrubber 2.0c curve fitting software. […] Binding dissociation equilibrium constants (KD) and dissociative half-lives (t½) were calculated from the kinetic rate constants as: […]
# [2] = target: T1, hFGFR2b.mmh; assay: SPR (Biacore), antibody captured by anti-human Fc, hFGFR2b-MMH as analyte, 25 C
# Description: (§1) The equilibrium dissociation constants (KD values) for hFGFR2b.mmh binding to anti-FGFR2 antibodies conjugated with Tubulysin (“tubulysin 1ALP”), Auristatin (“auristatin LP1”), or mc-VC-PAB-NMe-C3-May (“maytansinoid 1ALP”) were determined using a real-time surface plasmon resonance biosensor assay on a Biacore 2000 or a Biacore 4000 instrument. The Biacore sensor surface was derivatized by amine coupling with a monoclonal mouse anti-human Fc antibody (REGN2567 or Jackson Cat. No #109-005-098) to capture anti-FGFR2 ADC and parent unmodified antibodies expressed with human constant regions. Biacore binding studies were performed in HBS-EP running buffer (0.01M HEPES pH 7.4, 0.15M NaCl, 3 mM EDTA, 0.05% v/v Surfactant P20). Human FGFR2b and Human FGFR2c were prepared in-house expressing a C-terminal myc-myc-hexahistidine tag (hFGFR2b-MMH—SEQ ID NO: 57; hFGFR2c-MMH—SEQ ID NO: 58). […] Association of hFGFR2b-MMH or hFGFR2c-MMH to each of the captured ADCs and monoclonal antibodies was monitored for 4 minutes. Subsequently, dissociation was monitored for 10 minutes in HBS-EP running buffer. Anti-human Fc surface was regenerated by a brief injection of 20 mM H₃PO₄. All binding kinetic experiments were performed at 25° C. Kinetic association (kₐ) and dissociation (kd) rate constants were determined by fitting the real-time sensorgrams to a 1:1 binding model using Scrubber 2.0c curve fitting software. All sensorgrams were double referenced by subtracting buffer injection sensorgram signal from the corresponding analyte sensorgram, thereby removing artifacts caused by dissociation of the antibody from the capture surface. Binding dissociation equilibrium constants (KD) and dissociative half-lives (t½) were calculated from the kinetic rate constants as: […]
# [3] = target: T1, hFGFR2b.mmh; assay: SPR (Biacore), ADC captured by anti-human Fc, hFGFR2b-MMH as analyte, 25 C
# Description: as §1
# [4] = target: T2, FGFR2b on SNU-16 and MFM-223 cells; assay: cell-based or functional assay
# [5] = target: T2, FGFR2b on SNU-16 and MFM-223 cells; assay: cell-based or functional assay
Binder,Antigen Bound (RU) [1] [RU],Antigen Bound (RU) [2] [RU],Kd [2] [pM],koff [2] [s⁻¹],kon [2] [M⁻¹ s⁻¹],t1/2 [2] [min],Antigen Bound (RU) [3] [RU],t1/2 [3] [min],"IC50 (M), cytotoxicity, SNU-16 monoculture, 5 days (bystander assay) [4] [M]","Max % Kill, SNU-16 monoculture (bystander assay) [4] [%]","IC50 (M), CellTiter-Glo cytotoxicity, MFM-223 cells, 6 days [5] [M]","IC50 (M), CellTiter-Glo cytotoxicity, SNU-16 cells, 6 days [5] [M]","Max % Kill, MFM-223 cells [5] [%]","Max % Kill, SNU-16 cells [5] [%]",Kd [3] [pM],binding result [1]
"Comp1 (antibody, INN chains, looked up, V domains shown) VH: QVQLVQSGAEVKKPGSSVKVSCKASGYIFTTYNVHWVRQAPGQGLEWIGSIYPDNGDTSYNQNFKGRATITADKSTSTAYMELSSLRSEDTAVYYCARGDFAYWGQGTLVTVSS VL: DIQMTQSPSSLSASVGDRVTITCKASQGVSNDVAWYQQKPGKAPKLLIYSASYRYTGVPSRFSGSGSGTDFTFTISSLQPEDIATYYCQQHSTTPYTFGQGTKLEIK",0.6,68.3,60800,0.00471,77400,2.5,,,,,,,,,,
"mAb2-tubulysin 1ALP (antibody, V domains shown, deglycosylated; Q295 carries azido-PEG3-amine clicked to Tubulysin 1A-LP; DAR 2.1 per antibody, also called Anti FGFR2 mAb2-PEG3-N3-Tubulysin 1A-LP) VH: QVQLVESGGGVVQPGKSLRLSCAASGFTFSNYGMHWVRQTPVKGLEWVTLIWYDGSNKYYTDSVKGRFTISRDNSKNTLYLQMNSLRSEDTAVYYCAREGNWNYGHAFDIWGQGTMVTVSS VL: DIQMTQSPSTLSASVGDRVTITCRASQNIGNWLAWYQQKPGKAPNLLIYKASTLESGVPSRFSGSGSGTEFTLTISSLQPDDFATYNCQQYNSYSPTFGQGTKLEIKR",,,,,,,32.7,9.8,2.73e-11,97.2,6.36e-11,3.7e-11,90,95.3,,
"mAb2-maytansinoid 1ALP (antibody, V domains shown, maytansinoid 1ALP (mc-VC-PAB-NMe-C3-May) linker-payload conjugated; residues not stated in Example 5; DAR 1.9 per antibody, it is written on the heavy chain only for want of a better place; also called FGFR2 maytansinoid ADC) VH: QVQLVESGGGVVQPGKSLRLSCAASGFTFSNYGMHWVRQTPVKGLEWVTLIWYDGSNKYYTDSVKGRFTISRDNSKNTLYLQMNSLRSEDTAVYYCAREGNWNYGHAFDIWGQGTMVTVSS VL: DIQMTQSPSTLSASVGDRVTITCRASQNIGNWLAWYQQKPGKAPNLLIYKASTLESGVPSRFSGSGSGTEFTLTISSLQPDDFATYNCQQYNSYSPTFGQGTKLEIKR",,,,,,,31.3,13.1,6.45e-10,94.8,1.72e-10,2.06e-10,91.1,95,12800,
"mAb2 (antibody, V domains shown, also called anti-FGFR2 antibody mAb2; mAb2 (Unconjugated)) VH: QVQLVESGGGVVQPGKSLRLSCAASGFTFSNYGMHWVRQTPVKGLEWVTLIWYDGSNKYYTDSVKGRFTISRDNSKNTLYLQMNSLRSEDTAVYYCAREGNWNYGHAFDIWGQGTMVTVSS VL: DIQMTQSPSTLSASVGDRVTITCRASQNIGNWLAWYQQKPGKAPNLLIYKASTLESGVPSRFSGSGSGTEFTLTISSLQPDDFATYNCQQYNSYSPTFGQGTKLEIKR",,,8920,0.000447,50100,25.8,,,,,,,,,,
"mAb1-tubulysin 1ALP (antibody, human IgG4 S228P, kappa, V domains shown, deglycosylated; Q295 carries azido-PEG3-amine clicked to Tubulysin 1A-LP; DAR 2.1 per antibody, also called Anti FGFR2 mAb1-PEG3-N3-Tubulysin 1A-LP) VH: QVQLVESGGGVVQPGRSLRLSCAASGFTFSSYGMHWVRQAPGKGLEWVAVIWYDGSNKYYADSVKGRFTISRDNSKNTLYLQMNSLRAEDTAVYYCAREESSASGVDYWGQGTLVTVSS VL: EIVLTQSPGTLSLSPGERATLSCRASQSVSTRYLAWYQQKRGQAPRLLIYGASSRATGIPDRFSGSGSGTDFTLTISRLEPEDFAVYYCQEYGSSSITFGQGTRLEIKR",,,,,,,36.4,7.4,6.69e-11,97.1,1.25e-10,4.34e-11,91.1,95.4,,
"mAb1-maytansinoid 1ALP (antibody, V domains shown, maytansinoid 1ALP (mc-VC-PAB-NMe-C3-May) linker-payload conjugated; residues not stated in Example 5; DAR 2.5 per antibody, it is written on the heavy chain only for want of a better place) VH: QVQLVESGGGVVQPGRSLRLSCAASGFTFSSYGMHWVRQAPGKGLEWVAVIWYDGSNKYYADSVKGRFTISRDNSKNTLYLQMNSLRAEDTAVYYCAREESSASGVDYWGQGTLVTVSS VL: EIVLTQSPGTLSLSPGERATLSCRASQSVSTRYLAWYQQKRGQAPRLLIYGASSRATGIPDRFSGSGSGTDFTLTISRLEPEDFAVYYCQEYGSSSITFGQGTRLEIKR",,,,,,,42.1,11.1,,,2.14e-10,2.68e-10,85.5,93.1,41800,
"mAb1 (antibody, human IgG4 S228P, kappa, V domains shown, also called anti-FGFR2 antibody mAb1; mAb1 (Unconjugated)) VH: QVQLVESGGGVVQPGRSLRLSCAASGFTFSSYGMHWVRQAPGKGLEWVAVIWYDGSNKYYADSVKGRFTISRDNSKNTLYLQMNSLRAEDTAVYYCAREESSASGVDYWGQGTLVTVSS VL: EIVLTQSPGTLSLSPGERATLSCRASQSVSTRYLAWYQQKRGQAPRLLIYGASSRATGIPDRFSGSGSGTDFTLTISRLEPEDFAVYYCQEYGSSSITFGQGTRLEIKR",,,25000,0.00104,41700,11.1,,,,,,,,,,no binding (tested: 30 nM (highest concentration injected))
